Numbered stars: 1 amine (or outer) side, 2 acyl side, 3 side chain; on linkers, the order of the positions; unused ones are H or OH. Bridge positions count the residues as written; N and C are the ends. * marks the point of attachment. C20 diacid = O=C(O)CCCCCCCCCCCCCCCCCCC(=O)*; γGlu = O=C(O)[C@H](CCC(=O)[*:2])N[*:1]
T1: human amylin receptor (amylin 3(a) receptor: human calcitonin receptor with RAMP-3) (human, UniProt P30988 25-474; O60896 24-148)
T1 sequence (looked up) 1: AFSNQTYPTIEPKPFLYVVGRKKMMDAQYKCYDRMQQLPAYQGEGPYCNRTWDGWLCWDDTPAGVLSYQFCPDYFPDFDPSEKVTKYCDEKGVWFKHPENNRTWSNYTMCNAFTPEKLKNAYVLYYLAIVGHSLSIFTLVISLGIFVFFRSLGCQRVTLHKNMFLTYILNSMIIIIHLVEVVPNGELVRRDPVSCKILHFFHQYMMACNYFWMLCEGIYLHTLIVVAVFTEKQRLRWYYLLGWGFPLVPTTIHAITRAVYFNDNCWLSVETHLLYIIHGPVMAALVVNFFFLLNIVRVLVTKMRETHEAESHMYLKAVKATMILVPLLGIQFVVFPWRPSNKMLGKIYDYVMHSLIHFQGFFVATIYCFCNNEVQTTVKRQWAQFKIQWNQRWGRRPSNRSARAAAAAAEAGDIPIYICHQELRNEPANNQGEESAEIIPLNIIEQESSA
T1 sequence (looked up) 2: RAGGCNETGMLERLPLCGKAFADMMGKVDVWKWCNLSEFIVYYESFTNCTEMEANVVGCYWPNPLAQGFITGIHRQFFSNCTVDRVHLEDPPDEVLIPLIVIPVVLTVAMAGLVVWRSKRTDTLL

T2: human calcitonin receptor (human, UniProt P30988 25-474)
T2 sequence (looked up): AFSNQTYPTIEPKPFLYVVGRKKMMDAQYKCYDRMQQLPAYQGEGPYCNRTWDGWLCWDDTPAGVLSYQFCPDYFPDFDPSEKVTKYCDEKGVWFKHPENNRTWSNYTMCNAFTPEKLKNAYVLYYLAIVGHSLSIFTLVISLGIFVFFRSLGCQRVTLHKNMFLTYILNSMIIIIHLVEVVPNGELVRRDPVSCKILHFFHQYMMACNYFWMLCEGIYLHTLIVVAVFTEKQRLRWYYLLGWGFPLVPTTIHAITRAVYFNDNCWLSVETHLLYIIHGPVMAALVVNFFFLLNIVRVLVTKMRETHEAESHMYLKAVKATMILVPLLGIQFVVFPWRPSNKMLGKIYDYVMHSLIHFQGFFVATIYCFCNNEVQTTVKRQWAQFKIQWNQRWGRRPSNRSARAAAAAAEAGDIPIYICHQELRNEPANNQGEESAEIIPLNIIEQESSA


Tests used:
[1] = molecular target: T1, human amylin receptor (amylin 3(a) …); assay: cell-based or functional assay
[2] = molecular target: T2, human calcitonin receptor; assay: cell-based or functional assay

Binder	hAmylin-R funct. EC50 [1] [nM]	Ratio hCT/hAmylin funct. [2]	hCTR funct. EC50 [2] [nM]
{C20 diacid-γGlu}-KCNTATCATQRLANFLRHSSPNFGAIPSSTPVGSETY-NH2 (disulfide 2-7; SMILES CC[C@H](C)[C@H](NC(=O)[C@H](C)NC(=O)CNC(=O)[C@H](Cc1ccccc1)NC(=O)[C@H](CC(N)=O)NC(=O)[C@@H]1CCCN1C(=O)[C@H](CO)NC(=O)[C@H](CO)NC(=O)[C@H](Cc1c[nH]cn1)NC(=O)[C@H](CCCNC(=N)N)NC(=O)[C@H](CC(C)C)NC(=O)[C@H](Cc1ccccc1)NC(=O)[C@H](CC(N)=O)NC(=O)[C@H](C)NC(=O)[C@H](CC(C)C)NC(=O)[C@H](CCCNC(=N)N)NC(=O)[C@H](CCC(N)=O)NC(=O)[C@@H](NC(=O)[C@H](C)NC(=O)[C@@H]1CSSC[C@H](NC(=O)[C@H](CCCCN)NC(=O)CC[C@H](NC(=O)CCCCCCCCCCCCCCCCCCC(=O)O)C(=O)O)C(=O)N[C@@H](CC(N)=O)C(=O)N[C@@H]([C@@H](C)O)C(=O)N[C@@H](C)C(=O)N[C@@H]([C@@H](C)O)C(=O)N1)[C@@H](C)O)C(=O)N1CCC[C@H]1C(=O)N[C@@H](CO)C(=O)N[C@@H](CO)C(=O)N[C@H](C(=O)N1CCC[C@H]1C(=O)N[C@H](C(=O)NCC(=O)N[C@@H](CO)C(=O)N[C@@H](CCC(=O)O)C(=O)N[C@H](C(=O)N[C@@H](Cc1ccc(O)cc1)C(N)=O)[C@@H](C)O)C(C)C)[C@@H](C)O, also called compound 28)	0.22	9.2	2.03
{C20 diacid-γGlu}-KCNTATCATQRLAEFLRHSSPNFGAIPSSTNVGSDTP-NH2 (disulfide 2-7; SMILES CC[C@H](C)[C@H](NC(=O)[C@H](C)NC(=O)CNC(=O)[C@H](Cc1ccccc1)NC(=O)[C@H](CC(N)=O)NC(=O)[C@@H]1CCCN1C(=O)[C@H](CO)NC(=O)[C@H](CO)NC(=O)[C@H](Cc1c[nH]cn1)NC(=O)[C@H](CCCNC(=N)N)NC(=O)[C@H](CC(C)C)NC(=O)[C@H](Cc1ccccc1)NC(=O)[C@H](CCC(=O)O)NC(=O)[C@H](C)NC(=O)[C@H](CC(C)C)NC(=O)[C@H](CCCNC(=N)N)NC(=O)[C@H](CCC(N)=O)NC(=O)[C@@H](NC(=O)[C@H](C)NC(=O)[C@@H]1CSSC[C@H](NC(=O)[C@H](CCCCN)NC(=O)CC[C@H](NC(=O)CCCCCCCCCCCCCCCCCCC(=O)O)C(=O)O)C(=O)N[C@@H](CC(N)=O)C(=O)N[C@@H]([C@@H](C)O)C(=O)N[C@@H](C)C(=O)N[C@@H]([C@@H](C)O)C(=O)N1)[C@@H](C)O)C(=O)N1CCC[C@H]1C(=O)N[C@@H](CO)C(=O)N[C@@H](CO)C(=O)N[C@H](C(=O)N[C@@H](CC(N)=O)C(=O)N[C@H](C(=O)NCC(=O)N[C@@H](CO)C(=O)N[C@@H](CC(=O)O)C(=O)N[C@H](C(=O)N1CCC[C@H]1C(N)=O)[C@@H](C)O)C(C)C)[C@@H](C)O, also called compound 11)	0.12	0.9	0.112
{C20 diacid-γGlu}-KCNTATCATQRLANFLRHSSPNFGAIPSSTNVGPETY-NH2 (disulfide 2-7; SMILES CC[C@H](C)[C@H](NC(=O)[C@H](C)NC(=O)CNC(=O)[C@H](Cc1ccccc1)NC(=O)[C@H](CC(N)=O)NC(=O)[C@@H]1CCCN1C(=O)[C@H](CO)NC(=O)[C@H](CO)NC(=O)[C@H](Cc1c[nH]cn1)NC(=O)[C@H](CCCNC(=N)N)NC(=O)[C@H](CC(C)C)NC(=O)[C@H](Cc1ccccc1)NC(=O)[C@H](CC(N)=O)NC(=O)[C@H](C)NC(=O)[C@H](CC(C)C)NC(=O)[C@H](CCCNC(=N)N)NC(=O)[C@H](CCC(N)=O)NC(=O)[C@@H](NC(=O)[C@H](C)NC(=O)[C@@H]1CSSC[C@H](NC(=O)[C@H](CCCCN)NC(=O)CC[C@H](NC(=O)CCCCCCCCCCCCCCCCCCC(=O)O)C(=O)O)C(=O)N[C@@H](CC(N)=O)C(=O)N[C@@H]([C@@H](C)O)C(=O)N[C@@H](C)C(=O)N[C@@H]([C@@H](C)O)C(=O)N1)[C@@H](C)O)C(=O)N1CCC[C@H]1C(=O)N[C@@H](CO)C(=O)N[C@@H](CO)C(=O)N[C@H](C(=O)N[C@@H](CC(N)=O)C(=O)N[C@H](C(=O)NCC(=O)N1CCC[C@H]1C(=O)N[C@@H](CCC(=O)O)C(=O)N[C@H](C(=O)N[C@@H](Cc1ccc(O)cc1)C(N)=O)[C@@H](C)O)C(C)C)[C@@H](C)O, also called compound 29)	0.099	8.7	0.857
{C20 diacid-γGlu}-KCNTATCATQRLAEFLRHSSPNFGAIPSSTNVGSRTY-NH2 (disulfide 2-7; SMILES CC[C@H](C)[C@H](NC(=O)[C@H](C)NC(=O)CNC(=O)[C@H](Cc1ccccc1)NC(=O)[C@H](CC(N)=O)NC(=O)[C@@H]1CCCN1C(=O)[C@H](CO)NC(=O)[C@H](CO)NC(=O)[C@H](Cc1c[nH]cn1)NC(=O)[C@H](CCCNC(=N)N)NC(=O)[C@H](CC(C)C)NC(=O)[C@H](Cc1ccccc1)NC(=O)[C@H](CCC(=O)O)NC(=O)[C@H](C)NC(=O)[C@H](CC(C)C)NC(=O)[C@H](CCCNC(=N)N)NC(=O)[C@H](CCC(N)=O)NC(=O)[C@@H](NC(=O)[C@H](C)NC(=O)[C@@H]1CSSC[C@H](NC(=O)[C@H](CCCCN)NC(=O)CC[C@H](NC(=O)CCCCCCCCCCCCCCCCCCC(=O)O)C(=O)O)C(=O)N[C@@H](CC(N)=O)C(=O)N[C@@H]([C@@H](C)O)C(=O)N[C@@H](C)C(=O)N[C@@H]([C@@H](C)O)C(=O)N1)[C@@H](C)O)C(=O)N1CCC[C@H]1C(=O)N[C@@H](CO)C(=O)N[C@@H](CO)C(=O)N[C@H](C(=O)N[C@@H](CC(N)=O)C(=O)N[C@H](C(=O)NCC(=O)N[C@@H](CO)C(=O)N[C@@H](CCCNC(=N)N)C(=O)N[C@H](C(=O)N[C@@H](Cc1ccc(O)cc1)C(N)=O)[C@@H](C)O)C(C)C)[C@@H](C)O, also called compound 16)	0.363	6.1	2.21
{C20 diacid-γGlu}-KCNTATCATQRLADFLRHSSPNFGAIPSSTNVGSNTP-NH2 (disulfide 2-7; SMILES CC[C@H](C)[C@H](NC(=O)[C@H](C)NC(=O)CNC(=O)[C@H](Cc1ccccc1)NC(=O)[C@H](CC(N)=O)NC(=O)[C@@H]1CCCN1C(=O)[C@H](CO)NC(=O)[C@H](CO)NC(=O)[C@H](Cc1c[nH]cn1)NC(=O)[C@H](CCCNC(=N)N)NC(=O)[C@H](CC(C)C)NC(=O)[C@H](Cc1ccccc1)NC(=O)[C@H](CC(=O)O)NC(=O)[C@H](C)NC(=O)[C@H](CC(C)C)NC(=O)[C@H](CCCNC(=N)N)NC(=O)[C@H](CCC(N)=O)NC(=O)[C@@H](NC(=O)[C@H](C)NC(=O)[C@@H]1CSSC[C@H](NC(=O)[C@H](CCCCN)NC(=O)CC[C@H](NC(=O)CCCCCCCCCCCCCCCCCCC(=O)O)C(=O)O)C(=O)N[C@@H](CC(N)=O)C(=O)N[C@@H]([C@@H](C)O)C(=O)N[C@@H](C)C(=O)N[C@@H]([C@@H](C)O)C(=O)N1)[C@@H](C)O)C(=O)N1CCC[C@H]1C(=O)N[C@@H](CO)C(=O)N[C@@H](CO)C(=O)N[C@H](C(=O)N[C@@H](CC(N)=O)C(=O)N[C@H](C(=O)NCC(=O)N[C@@H](CO)C(=O)N[C@@H](CC(N)=O)C(=O)N[C@H](C(=O)N1CCC[C@H]1C(N)=O)[C@@H](C)O)C(C)C)[C@@H](C)O, also called compound 10)	0.072	1	0.07
